# Data published in the supplement of paper PMC10065799, “High-throughput profiling of sequence recognition by tyrosine kinases and SH2 domains using bacterial peptide display” (eLife, 2023).
# Tests used:
# AncSZ = test: phosphorylation enrichment, bacterial display (enrichment ratio); higher = better substrate or ligand; peptides without Tyr show the background
# EPHB1 = EPHB1 (UniProt P54762); test: as above
# EPHB2 = EPHB2 (UniProt P29323); test: as above
# FGFR1 = FGFR1 (UniProt P11362); test: as above
# FGFR1, sequence (P11362 whole entry, looked up): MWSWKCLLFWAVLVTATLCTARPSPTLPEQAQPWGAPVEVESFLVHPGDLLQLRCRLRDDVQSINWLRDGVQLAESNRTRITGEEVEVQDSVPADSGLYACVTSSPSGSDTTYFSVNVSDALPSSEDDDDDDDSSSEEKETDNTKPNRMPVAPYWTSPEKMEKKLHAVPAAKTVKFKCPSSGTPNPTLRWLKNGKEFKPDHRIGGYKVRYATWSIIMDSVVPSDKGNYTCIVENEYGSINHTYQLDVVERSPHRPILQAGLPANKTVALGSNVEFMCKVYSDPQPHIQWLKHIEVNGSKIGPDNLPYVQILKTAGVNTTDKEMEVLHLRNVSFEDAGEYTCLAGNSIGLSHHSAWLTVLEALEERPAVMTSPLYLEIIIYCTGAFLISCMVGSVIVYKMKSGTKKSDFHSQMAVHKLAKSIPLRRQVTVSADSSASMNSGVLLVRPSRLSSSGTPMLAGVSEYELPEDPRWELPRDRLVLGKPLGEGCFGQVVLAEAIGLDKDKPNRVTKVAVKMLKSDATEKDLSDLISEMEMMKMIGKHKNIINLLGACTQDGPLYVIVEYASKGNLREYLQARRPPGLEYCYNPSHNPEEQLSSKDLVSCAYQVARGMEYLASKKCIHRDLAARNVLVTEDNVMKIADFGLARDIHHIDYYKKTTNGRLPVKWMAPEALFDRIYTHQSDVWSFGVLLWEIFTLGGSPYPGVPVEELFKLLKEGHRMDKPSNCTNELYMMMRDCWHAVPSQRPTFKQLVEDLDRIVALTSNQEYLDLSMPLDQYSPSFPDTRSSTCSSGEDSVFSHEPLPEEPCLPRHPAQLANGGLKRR
# FGFR3 = FGFR3 (UniProt P22607); test: as above
# FGFR3, sequence (P22607 whole entry, looked up): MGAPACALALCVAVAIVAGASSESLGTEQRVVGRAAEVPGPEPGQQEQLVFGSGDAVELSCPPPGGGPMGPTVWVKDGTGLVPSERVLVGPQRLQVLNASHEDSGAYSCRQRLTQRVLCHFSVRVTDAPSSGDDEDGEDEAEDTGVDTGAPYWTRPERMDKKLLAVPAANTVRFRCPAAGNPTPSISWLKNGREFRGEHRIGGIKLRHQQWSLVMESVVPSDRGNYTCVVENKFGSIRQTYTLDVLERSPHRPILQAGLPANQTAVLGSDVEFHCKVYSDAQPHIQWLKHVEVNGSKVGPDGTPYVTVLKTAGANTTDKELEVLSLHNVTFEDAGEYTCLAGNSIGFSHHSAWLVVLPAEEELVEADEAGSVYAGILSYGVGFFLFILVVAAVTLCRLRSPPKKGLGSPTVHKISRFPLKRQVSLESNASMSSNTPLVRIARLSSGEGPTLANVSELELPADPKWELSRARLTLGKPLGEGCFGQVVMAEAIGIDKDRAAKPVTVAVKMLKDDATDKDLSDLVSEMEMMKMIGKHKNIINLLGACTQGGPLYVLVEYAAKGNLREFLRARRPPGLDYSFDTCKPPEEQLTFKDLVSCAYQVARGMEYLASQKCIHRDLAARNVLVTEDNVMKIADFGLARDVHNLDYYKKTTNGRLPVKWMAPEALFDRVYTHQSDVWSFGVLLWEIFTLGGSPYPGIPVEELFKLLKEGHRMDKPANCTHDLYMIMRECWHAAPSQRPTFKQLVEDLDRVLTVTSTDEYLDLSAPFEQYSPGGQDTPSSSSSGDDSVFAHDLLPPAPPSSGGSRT
# Fer (mouse) = test: as above
# Fes = Fes (UniProt P07332); test: as above
# Fes, sequence (P07332 whole entry, looked up): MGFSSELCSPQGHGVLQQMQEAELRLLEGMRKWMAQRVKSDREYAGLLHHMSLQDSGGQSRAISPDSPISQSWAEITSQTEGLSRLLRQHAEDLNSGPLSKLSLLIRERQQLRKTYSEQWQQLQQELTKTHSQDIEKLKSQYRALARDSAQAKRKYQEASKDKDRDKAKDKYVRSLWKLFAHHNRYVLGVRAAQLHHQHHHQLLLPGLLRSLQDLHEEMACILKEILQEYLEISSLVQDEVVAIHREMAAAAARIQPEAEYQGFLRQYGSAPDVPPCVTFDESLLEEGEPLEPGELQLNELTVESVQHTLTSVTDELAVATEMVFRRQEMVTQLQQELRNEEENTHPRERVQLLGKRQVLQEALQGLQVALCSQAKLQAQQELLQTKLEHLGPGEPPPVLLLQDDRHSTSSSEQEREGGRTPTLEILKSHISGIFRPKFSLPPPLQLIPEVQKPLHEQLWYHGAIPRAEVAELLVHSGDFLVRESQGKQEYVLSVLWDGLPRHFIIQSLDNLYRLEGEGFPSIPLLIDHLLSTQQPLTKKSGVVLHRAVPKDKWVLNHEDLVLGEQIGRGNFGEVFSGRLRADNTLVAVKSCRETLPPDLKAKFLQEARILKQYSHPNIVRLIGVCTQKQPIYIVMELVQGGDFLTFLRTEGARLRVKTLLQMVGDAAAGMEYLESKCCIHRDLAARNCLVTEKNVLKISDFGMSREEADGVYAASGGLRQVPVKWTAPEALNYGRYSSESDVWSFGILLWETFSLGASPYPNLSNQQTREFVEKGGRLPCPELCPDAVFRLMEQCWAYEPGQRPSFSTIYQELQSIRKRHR
# Fyn = Fyn (UniProt P06241); test: as above
# Fyn, sequence (P06241 whole entry, looked up): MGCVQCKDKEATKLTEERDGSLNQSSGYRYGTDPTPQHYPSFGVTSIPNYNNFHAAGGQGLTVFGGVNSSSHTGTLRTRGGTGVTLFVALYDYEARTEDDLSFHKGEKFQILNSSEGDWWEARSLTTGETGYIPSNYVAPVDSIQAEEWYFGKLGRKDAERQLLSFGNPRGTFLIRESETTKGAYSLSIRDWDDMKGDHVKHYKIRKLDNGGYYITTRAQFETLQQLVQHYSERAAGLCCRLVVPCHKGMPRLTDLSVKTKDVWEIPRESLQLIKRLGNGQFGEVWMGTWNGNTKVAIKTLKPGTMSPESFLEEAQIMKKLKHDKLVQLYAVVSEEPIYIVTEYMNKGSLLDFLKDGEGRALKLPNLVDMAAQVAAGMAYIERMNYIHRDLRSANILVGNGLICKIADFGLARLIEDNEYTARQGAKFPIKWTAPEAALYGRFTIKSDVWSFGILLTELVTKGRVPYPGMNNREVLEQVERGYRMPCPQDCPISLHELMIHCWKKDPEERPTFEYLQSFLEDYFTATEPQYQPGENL
# Hck = Hck (UniProt P08631); test: as above
# Hck, sequence (P08631 whole entry, looked up): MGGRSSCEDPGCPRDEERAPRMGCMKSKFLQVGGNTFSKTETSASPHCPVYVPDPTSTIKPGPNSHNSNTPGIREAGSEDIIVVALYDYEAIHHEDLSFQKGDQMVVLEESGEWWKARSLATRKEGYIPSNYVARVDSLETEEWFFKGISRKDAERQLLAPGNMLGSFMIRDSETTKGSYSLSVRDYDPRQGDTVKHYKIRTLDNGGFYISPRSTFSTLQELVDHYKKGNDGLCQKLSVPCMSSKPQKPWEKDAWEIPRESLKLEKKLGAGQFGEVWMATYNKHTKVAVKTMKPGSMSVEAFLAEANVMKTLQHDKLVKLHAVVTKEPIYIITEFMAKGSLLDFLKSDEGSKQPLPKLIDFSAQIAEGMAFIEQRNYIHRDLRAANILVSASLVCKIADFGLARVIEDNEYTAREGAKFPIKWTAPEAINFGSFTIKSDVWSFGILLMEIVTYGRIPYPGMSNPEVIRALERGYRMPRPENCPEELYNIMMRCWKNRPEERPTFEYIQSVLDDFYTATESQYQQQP
# Jak2 = Jak2 (UniProt O60674); test: as above
# MERTK = MERTK (UniProt Q12866); test: as above
# MERTK, sequence (Q12866 whole entry, looked up): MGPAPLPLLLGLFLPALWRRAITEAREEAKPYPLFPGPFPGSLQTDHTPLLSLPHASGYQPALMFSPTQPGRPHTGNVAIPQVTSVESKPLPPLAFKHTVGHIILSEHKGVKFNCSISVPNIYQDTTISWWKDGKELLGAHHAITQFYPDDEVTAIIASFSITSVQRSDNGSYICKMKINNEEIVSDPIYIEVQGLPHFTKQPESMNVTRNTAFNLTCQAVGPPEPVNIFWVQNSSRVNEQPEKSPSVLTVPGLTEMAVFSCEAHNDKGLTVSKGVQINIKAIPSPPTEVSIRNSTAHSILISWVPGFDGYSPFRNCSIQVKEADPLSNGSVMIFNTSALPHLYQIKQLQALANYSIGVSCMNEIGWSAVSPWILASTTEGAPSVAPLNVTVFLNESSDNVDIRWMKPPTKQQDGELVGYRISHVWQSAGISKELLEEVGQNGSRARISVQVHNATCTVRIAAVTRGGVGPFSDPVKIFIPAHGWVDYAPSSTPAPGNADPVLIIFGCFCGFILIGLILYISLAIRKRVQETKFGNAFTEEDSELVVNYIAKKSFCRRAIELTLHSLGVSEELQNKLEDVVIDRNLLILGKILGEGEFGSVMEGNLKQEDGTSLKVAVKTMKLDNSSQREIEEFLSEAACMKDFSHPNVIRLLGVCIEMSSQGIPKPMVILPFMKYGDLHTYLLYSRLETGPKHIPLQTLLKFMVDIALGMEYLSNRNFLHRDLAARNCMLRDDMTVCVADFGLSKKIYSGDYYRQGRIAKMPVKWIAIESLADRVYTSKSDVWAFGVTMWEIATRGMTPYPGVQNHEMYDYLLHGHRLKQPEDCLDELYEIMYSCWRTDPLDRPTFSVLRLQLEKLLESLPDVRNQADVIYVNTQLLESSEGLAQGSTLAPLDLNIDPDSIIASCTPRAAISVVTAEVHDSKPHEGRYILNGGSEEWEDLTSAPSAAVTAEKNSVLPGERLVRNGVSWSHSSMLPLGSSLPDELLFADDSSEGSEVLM
# c-Abl (mouse) = test: as above
# c-Src = test: as above
# Grb2 SH2 = Grb2 SH2 (UniProt P62993); test: SH2 binding enrichment of the phosphorylated peptide, bacterial display (enrichment ratio); higher = better substrate or ligand; peptides without Tyr show the background
# SHP2-C SH2 = test: as above
# c-Src SH2 = test: as above
# 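For SH2 binding enrichment of the phosphorylated peptide, bacterial display in this document: peptide library displayed on the E. coli surface as eCPX fusions, selected cells deep-sequenced, score is each peptide's frequency after selection divided by its frequency in the input.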
# 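For phosphorylation enrichment, bacterial display in this document: 11-residue human phosphosite peptides and single-mutation variants displayed on the E. coli surface, counted by deep sequencing, each peptide's frequency after selection divided by its frequency in the unselected input library; frequency after pTyr selection over input frequency; kinase dosed for 20-30% of maximal phosphorylation in three min.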
Sequence,SH2 binding enrichment (Grb2 SH2),SH2 binding enrichment (SHP2-C SH2),SH2 binding enrichment (c-Src SH2),phosphorylation enrichment (AncSZ),phosphorylation enrichment (EPHB1),phosphorylation enrichment (EPHB2),phosphorylation enrichment (FGFR1),phosphorylation enrichment (FGFR3),phosphorylation enrichment (Fer (mouse)),phosphorylation enrichment (Fes),phosphorylation enrichment (Fyn),phosphorylation enrichment (Hck),phosphorylation enrichment (Jak2),phosphorylation enrichment (MERTK),phosphorylation enrichment (c-Abl (mouse)),phosphorylation enrichment (c-Src)
NKKYHYRELPV [ERN2_Y860_H858Y],1.17,1.12,1.06,0.456,0.361,0.278,0.316,0.345,0.32,0.502,0.296,0.29,0.379,0.28,0.515,0.32
NPSFNYEIVNQ [DYNC1H1_Y3379_R3384Q_YF],0.78,0.579,0.724,1.43,3.9,1.44,0.763,0.847,1.12,1.47,0.524,0.602,1.13,0.492,0.586,0.408
NQSVRYDSSLK [ABCC8_Y1353_L1349Q],0.675,0.609,0.404,0.523,0.484,0.491,0.341,0.456,0.57,0.601,0.461,0.429,0.556,0.423,0.487,0.433
PADQAYSWYQH [NDST1_Y711_R709Q],0.802,0.488,0.63,1.55,0.755,0.674,5.18,3.15,20.6,1.57,1.17,1.37,0.765,3.75,0.6,1.58
PELIDYGKLWK [ACTN1_Y193_R197W],0.958,0.989,0.538,1.31,0.718,0.683,0.535,0.766,0.531,1.26,0.601,0.393,0.761,0.522,0.912,0.59
PELINYHQHFS [BTK_Y361_N365Y_YF],0.895,0.934,0.557,0.508,0.723,0.44,0.591,0.799,0.366,0.869,0.547,0.513,0.869,0.401,0.711,0.38
PGAPAYCVLME [MYO5A_Y1245_R1246C],0.628,0.549,0.883,1.64,3.07,1.5,1.58,1.64,0.876,1.44,1.12,1.38,1.25,4.03,1.27,0.964
PGIRMYQVQFN [LRFN1_Y454_YF],1.61,1.12,0.997,0.619,0.467,0.505,0.31,0.531,0.423,0.863,0.504,0.384,0.789,0.349,0.636,0.583
PGLSSYGVPAS [FLNB_Y1530],0.898,0.658,0.545,0.677,0.543,0.435,0.56,0.526,0.408,0.738,0.661,0.482,0.599,0.497,0.913,0.474
PIYEGYGLPHA [ACTA1_Y171_A172G],0.79,0.52,0.739,1.32,31,33.5,0.555,0.945,20.9,2.45,17.5,16.9,0.833,18.3,12.7,13.8
PKAWNYELPAT [PROM1_Y34],0.996,0.631,0.851,1.23,0.761,0.997,0.582,0.574,0.72,0.972,0.822,0.597,0.894,0.59,0.735,0.414
PKEQKYSFLQN [GH1_Y68],0.909,1.06,1.05,0.972,0.465,0.951,0.719,0.978,0.627,0.862,0.692,0.577,0.688,1.18,0.625,0.554
PKFHSYVSLPF [PLXNA2_Y293],0.992,1.47,2.17,1.35,1.38,1.01,1.86,1.82,0.713,1.66,0.903,1.14,1.59,1.22,0.801,0.734
PKGIGYGQGAG [CSRP3_Y73],0.823,0.43,0.489,0.458,0.396,0.469,0.731,0.513,0.492,0.721,0.525,0.4,0.474,0.462,0.422,0.308
PLFRKYWPNHI [GREB1L_Y1560_YF],0.855,0.973,0.461,1.17,0.589,0.498,0.505,0.565,0.482,0.994,0.698,0.727,0.695,0.633,0.557,0.491
PLLLSYYLIKW [NUP160_Y773],1.29,1.45,0.966,1.33,1.14,0.947,4.29,3.73,0.633,1.83,0.358,0.628,4.49,1.68,1.2,0.854
PLYSKYWPNHI [GREB1L_Y1560_R1558S],1.2,0.732,0.608,2.47,19.1,29.7,5.11,3.06,12.3,1.27,19.9,17.4,6.37,20.1,22.6,11.8
PNRILYGDFWQ [MYH6_Y717_R721W],0.807,0.666,0.467,1.1,0.689,0.939,0.555,0.935,0.626,1.29,5.79,2.16,0.999,0.849,0.778,4.24
PSALGYSPSLH [LLGL2_Y40_R45H],0.827,0.695,0.466,0.639,0.573,0.436,0.48,0.553,0.444,0.823,0.458,0.432,0.71,0.621,0.864,0.631
PSALGYSPSLR [LLGL2_Y40],0.958,1.04,0.493,0.669,0.769,0.628,0.404,0.46,0.512,0.887,0.75,0.472,0.908,0.712,0.764,0.692

# Second part, led by results:
SH2 binding enrichment (Grb2 SH2),SH2 binding enrichment (SHP2-C SH2),SH2 binding enrichment (c-Src SH2),Sequence,phosphorylation enrichment (AncSZ),phosphorylation enrichment (EPHB1),phosphorylation enrichment (EPHB2),phosphorylation enrichment (FGFR1),phosphorylation enrichment (FGFR3),phosphorylation enrichment (Fer (mouse)),phosphorylation enrichment (Fes),phosphorylation enrichment (Fyn),phosphorylation enrichment (Hck),phosphorylation enrichment (Jak2),phosphorylation enrichment (MERTK),phosphorylation enrichment (c-Abl (mouse)),phosphorylation enrichment (c-Src)
0.752,0.761,0.427,NHYKIYNPCAE [PTEN_Y68_L70P],0.714,0.437,0.48,0.485,0.573,0.382,0.834,0.508,0.55,0.569,0.427,0.607,0.424
0.745,0.765,0.342,NKVFTYIFIME [SCN4A_Y1074_D1069N],1.28,0.685,0.613,0.507,0.857,0.589,1.71,0.46,0.509,1.46,0.419,0.99,0.487
0.74,0.673,0.64,NLVSEYQQFQD [TUBB3_Y422_D417N_YF],1.17,0.739,0.624,0.545,0.745,0.556,1.14,0.574,0.535,1.08,0.429,0.88,0.698
1.08,0.854,2.49,NTGNYYDLYGG [PTPN11_Y63_D61N],1.73,18.3,20.1,15.7,12.6,2.82,0.984,6.39,6.84,2.42,9.28,1.01,5.29
0.691,0.676,0.935,PEVSGYCHYAD [TG_Y234_C237Y],0.864,0.831,0.616,0.427,0.714,1.1,1.1,0.506,0.658,1.04,0.425,1.2,0.454
1.02,1.02,0.872,PFRFIYMAVQH [PTPN11_Y515_Q510P_YF],1.09,0.741,0.737,0.463,0.726,0.563,1.01,0.732,1.11,1.18,0.527,1.27,1.26
0.895,0.677,0.275,PGDGEYFTLQI [TP53_Y327_L323G],2.91,0.895,0.892,10.5,7.71,0.651,1.57,3.54,1.95,4.13,0.705,1.75,4.02
0.829,0.777,0.695,PHIKTYMRPSP [TDP1_Y497],0.702,0.645,0.518,0.629,0.547,0.543,0.688,0.861,0.441,0.586,0.429,0.654,0.435
0.78,0.614,0.457,PKEEPYQMQEK [SLC5A3_Y565],2.33,0.964,1.26,1,1.21,0.687,1.92,0.784,0.566,1.17,0.691,0.943,0.923
0.692,0.836,0.675,PLDGEYFTRQI [TP53_Y327_L330R],1.09,0.441,0.435,0.387,0.651,0.291,1.01,0.547,0.686,0.637,0.54,1.2,0.841
0.841,0.743,0.529,PLTKVYVVEGS [ZMPSTE24_Y253],0.814,0.487,0.538,0.494,0.73,0.567,0.952,0.494,0.441,0.526,0.418,0.617,0.554
1.14,1.88,1.23,PNQRRYVFFFS [PTEN_Y174_S170N_YF],1.89,0.61,0.639,0.731,1.25,0.76,1.65,0.524,0.77,1.22,0.491,1.22,0.677
0.674,0.535,0.41,PSPTKYSLSPS [RANBP2_Y785_R784K],1.19,0.437,0.492,0.515,0.471,0.534,0.669,0.318,0.354,0.725,0.473,0.553,0.514
